From patent US20150175711A1 (SINOMAB BIOSCIENCE, published 2015) come the findings set out here.

For assay [1], the target named is anti-idiotype mIgG Fab-glycophorin A fusion protein on transfected SP2/0 cells. Description: cell-based ELISA, SM03 on transfected SP2/0 GlycoA clone 1 (surface expression graded -), anti-human Fc-HRP. Background: An ELISA detects its analyte on a solid surface through an enzyme-linked reagent.
Assay [2] has the same target. Description: cell-based ELISA, SM03 on transfected SP2/0 GlycoA clone 5 (surface expression graded +++), anti-human Fc-HRP.
The target is the same in assay [3]. Kind of assay: cell-based ELISA, SM03 on transfected SP2/0 GlycoA clone 3 (surface expression graded -), anti-human Fc-HRP.
Assay [4] concerns the target anti-idiotype IgD-TM on transfected SP2/0 cells. Description: cell-based ELISA, SM03 10 ug/ml on transfected SP2/0 Clone BB5 (surface expression graded -), anti-human Fc-HRP.
Assay [5] has as its target anti-idiotype mIgG Fab-glycophorin A fusion protein on transfected SP2/0 cells. Kind of assay: cell-based ELISA, SM03 on transfected SP2/0 GlycoA clone 8 (surface expression graded -), anti-human Fc-HRP.
The target is the same in assay [6]. Kind of assay: cell-based ELISA, SM03 on transfected SP2/0 GlycoA clone 10 (surface expression graded -), anti-human Fc-HRP.
For assay [7] the target is unchanged. Description: cell-based ELISA, SM03 on transfected SP2/0 GlycoA clone 9 (surface expression graded -), anti-human Fc-HRP.
Assay [8] deals with anti-idiotype mIgG Fab-GPI-DAF fusion protein on transfected SP2/0 cells. Description: cell-based ELISA, SM03 on transfected SP2/0 GPI clone 7 (surface expression graded -), anti-human Fc-HRP.
For assay [9], the target named is anti-idiotype IgD-TM on transfected SP2/0 cells. Description: cell-based ELISA, SM03 10 ug/ml on transfected SP2/0 Clone BB4 (surface expression graded -), anti-human Fc-HRP.
The target of assay [10] is anti-idiotype mIgG Fab-GPI-DAF fusion protein on transfected SP2/0 cells. Kind of assay: cell-based ELISA, SM03 on transfected SP2/0 GPI clone 1 (surface expression graded -), anti-human Fc-HRP.
Assay [11] concerns the target anti-idiotype IgD-TM on transfected SP2/0 cells. Kind of assay: cell-based ELISA, SM03 10 ug/ml on transfected SP2/0 Clone AB4 (surface expression graded -), anti-human Fc-HRP.
The target is the same in assay [12]. Description: cell-based ELISA, SM03 10 ug/ml on transfected SP2/0 Clone AG5 (surface expression graded +++), anti-human Fc-HRP.
For assay [13], the target named is anti-idiotype mIgG Fab-GPI-DAF fusion protein on transfected SP2/0 cells. Kind of assay: cell-based ELISA, SM03 on transfected SP2/0 GPI clone 6 (surface expression graded -), anti-human Fc-HRP.
For assay [14] the target is unchanged. Description: cell-based ELISA, SM03 on transfected SP2/0 GPI clone 4 (surface expression graded +++), anti-human Fc-HRP.
Assay [15] shares this target. Kind of assay: cell-based ELISA, SM03 on transfected SP2/0 GPI clone 5 (surface expression graded +), anti-human Fc-HRP.
Assay [16] has the same target. Description: cell-based ELISA, SM03 on transfected SP2/0 GPI clone 10 (surface expression graded -), anti-human Fc-HRP.
For assay [17] the target is unchanged. Description: cell-based ELISA, SM03 on transfected SP2/0 GPI clone 8 (surface expression graded -), anti-human Fc-HRP.
Assay [18] has as its target anti-idiotype IgD-TM on transfected SP2/0 cells. Kind of assay: cell-based ELISA, SM03 10 ug/ml on transfected SP2/0 Clone AF9 (surface expression graded -), anti-human Fc-HRP.
Assay [19] has as its target anti-idiotype mIgG Fab-glycophorin A fusion protein on transfected SP2/0 cells. Description: cell-based ELISA, SM03 on transfected SP2/0 GlycoA clone 15 (surface expression graded +++), anti-human Fc-HRP.
Assay [20] concerns the target anti-idiotype mIgG Fab-GPI-DAF fusion protein on transfected SP2/0 cells. Description: cell-based ELISA, SM03 on transfected SP2/0 GPI clone 3 (surface expression graded +++), anti-human Fc-HRP.
Assay [21] concerns the target anti-idiotype mIgG Fab-glycophorin A fusion protein on transfected SP2/0 cells. Description: cell-based ELISA, SM03 on transfected SP2/0 GlycoA clone 14 (surface expression graded -), anti-human Fc-HRP.
Assay [22] has as its target anti-idiotype mIgG Fab-GPI-DAF fusion protein on transfected SP2/0 cells. Description: cell-based ELISA, SM03 on transfected SP2/0 GPI clone 9 (surface expression graded -), anti-human Fc-HRP.
Assay [23] concerns the target anti-idiotype IgD-TM on transfected SP2/0 cells. Description: cell-based ELISA, SM03 10 ug/ml on transfected SP2/0 Clone BF9 (surface expression graded -), anti-human Fc-HRP.
For a further assay, the target named is T1, BSA (UniProt P02769 25-607).
T1 construct: also called control protein (BSA)
Description: phage ELISA, 1 ug BSA coated per well, anti-M13-HRP detection. As for the experimental part: Phages that survived panning were rescued. The binding specificities of selected phages were evaluated by Phage-ELISA using the target anti-CD22 antibodies RFB4, SM03, and framework-patched (humanized) SM06 and other control antibodies as antigens. […] After washing five times with borate washing buffer, pH8.0, horse radish peroxidase (HRP)-conjugated anti-M13 mouse antibody (Amersham) at a dilution fold of 3,000 was added.

Sequence of anti-idiotype IgD-TM on transfected SP2/0 cells (heavy, as listed by the source limits assumed, chain 1 of 2): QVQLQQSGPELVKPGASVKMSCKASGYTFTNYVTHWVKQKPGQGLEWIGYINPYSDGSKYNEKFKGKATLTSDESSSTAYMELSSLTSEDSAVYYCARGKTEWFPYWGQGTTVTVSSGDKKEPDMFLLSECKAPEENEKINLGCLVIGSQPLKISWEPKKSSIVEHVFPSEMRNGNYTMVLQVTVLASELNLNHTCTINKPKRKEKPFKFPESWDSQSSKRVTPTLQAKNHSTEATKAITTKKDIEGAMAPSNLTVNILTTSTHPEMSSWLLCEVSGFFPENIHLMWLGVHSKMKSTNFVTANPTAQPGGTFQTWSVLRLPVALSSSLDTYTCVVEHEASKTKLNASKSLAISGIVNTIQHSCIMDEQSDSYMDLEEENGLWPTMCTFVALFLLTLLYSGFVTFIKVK
Sequence of anti-idiotype IgD-TM on transfected SP2/0 cells (light, as listed by the source limits assumed, chain 2 of 2): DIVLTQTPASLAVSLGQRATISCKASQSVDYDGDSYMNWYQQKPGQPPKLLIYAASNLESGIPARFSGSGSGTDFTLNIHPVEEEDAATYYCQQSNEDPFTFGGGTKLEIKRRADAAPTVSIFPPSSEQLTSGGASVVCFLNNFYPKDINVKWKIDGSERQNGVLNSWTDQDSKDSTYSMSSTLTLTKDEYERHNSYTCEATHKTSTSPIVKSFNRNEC
Sequence of anti-idiotype mIgG Fab-glycophorin A fusion protein on transfected SP2/0 cells (heavy, as listed by the source limits assumed, chain 1 of 2): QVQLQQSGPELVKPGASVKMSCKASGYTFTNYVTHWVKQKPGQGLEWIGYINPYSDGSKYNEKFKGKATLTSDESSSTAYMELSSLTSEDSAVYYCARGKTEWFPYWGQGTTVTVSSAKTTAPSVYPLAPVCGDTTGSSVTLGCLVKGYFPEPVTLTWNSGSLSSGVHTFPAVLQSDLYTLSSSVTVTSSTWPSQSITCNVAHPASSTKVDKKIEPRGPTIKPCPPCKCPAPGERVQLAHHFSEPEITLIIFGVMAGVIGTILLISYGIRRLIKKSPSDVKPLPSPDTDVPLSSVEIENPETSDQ
Sequence of anti-idiotype mIgG Fab-glycophorin A fusion protein on transfected SP2/0 cells (light, as listed by the source limits assumed, chain 2 of 2): as the sequence (light, as listed by the source limits assumed, chain 2 of 2) above
Sequence of anti-idiotype mIgG Fab-GPI-DAF fusion protein on transfected SP2/0 cells (heavy, as listed by the source): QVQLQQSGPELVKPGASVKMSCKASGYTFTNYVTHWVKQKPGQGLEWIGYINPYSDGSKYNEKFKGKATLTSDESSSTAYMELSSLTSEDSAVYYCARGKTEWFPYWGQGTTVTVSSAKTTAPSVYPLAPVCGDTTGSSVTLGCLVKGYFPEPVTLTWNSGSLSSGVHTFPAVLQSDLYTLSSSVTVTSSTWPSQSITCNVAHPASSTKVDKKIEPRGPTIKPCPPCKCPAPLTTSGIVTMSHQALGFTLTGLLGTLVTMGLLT
T1 sequence (P02769 25-607 limits assumed): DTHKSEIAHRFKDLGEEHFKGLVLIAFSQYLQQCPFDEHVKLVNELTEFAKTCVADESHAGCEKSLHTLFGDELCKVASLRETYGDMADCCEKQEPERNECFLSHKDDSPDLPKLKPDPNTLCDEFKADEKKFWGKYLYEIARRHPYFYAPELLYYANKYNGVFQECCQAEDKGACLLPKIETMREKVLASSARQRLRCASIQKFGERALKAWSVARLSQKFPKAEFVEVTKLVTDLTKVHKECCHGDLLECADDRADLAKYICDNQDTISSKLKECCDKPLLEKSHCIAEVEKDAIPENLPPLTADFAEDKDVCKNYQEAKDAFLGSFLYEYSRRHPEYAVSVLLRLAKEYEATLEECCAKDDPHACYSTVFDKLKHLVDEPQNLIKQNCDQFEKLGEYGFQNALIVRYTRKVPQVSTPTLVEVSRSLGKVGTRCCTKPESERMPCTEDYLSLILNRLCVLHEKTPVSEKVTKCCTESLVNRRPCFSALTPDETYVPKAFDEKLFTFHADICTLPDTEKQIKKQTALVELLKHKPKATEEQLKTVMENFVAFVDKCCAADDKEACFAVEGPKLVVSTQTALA

For the molecule SM03 chimeric anti-CD22 antibody, the OD450 nm is 0.579 OD450 nm in assay [1]; 3.53 OD450 nm in [2]; 0.406 OD450 nm in [3]; 0.572 OD450 nm in assay [4]; 0.284 OD450 nm in assay [5]; 0.498 OD450 nm in assay [6]. For the same molecule, the OD450 nm came to 0.716 OD450 nm in assay [7]; 0.7 OD450 nm in assay [8]; 0.501 OD450 nm in assay [9]; 0.623 OD450 nm in [10]; 0.428 OD450 nm in assay [11]; 3.08 OD450 nm in assay [12]. Besides, the OD450 nm in assay [13] is 0.736 OD450 nm; in assay [14] it was 3.77 OD450 nm; in [15], 0.977 OD450 nm; in [16] it was 0.85 OD450 nm; in assay [17] it was 0.618 OD450 nm; in assay [18], 0.329 OD450 nm. Moreover, the OD450 nm in [19] worked out at 3.38 OD450 nm; in [20], 3.64 OD450 nm; in assay [21], 0.437 OD450 nm; in assay [22] it was 0.618 OD450 nm; in [23], 0.459 OD450 nm.

B1: scFv Phage #3 (scFv)
scFv: QVQLVQSGPELVKPGASVKMSCKASGYTFTNYVTHWVKQKPGQGLEWIGYINPYSDGSKYNEKFKGKATLTSDESSSTAYMEVSSLTSEDSAVYYCARGKTEWFPYWGQGTPLTVSGGGGSGSGSSGGGGDIVLTQTPASLAVSLGQRATISCKASQSVDYDGDSYMNWYQQKPGQPPKLLIYAASNLESGIPARFSGSGSGTDFTLNIHPVEEEDAATYYCQQSNEDPFTFGGGTKLEI
notes: the phage coat protein fusion is not described; also called scFv isolated from phage #3
Consider B1, for which the binding result in the assay with BSA is given as “no binding”.
